According to paper PMC4899871, “The T300A Crohn's disease risk polymorphism impairs function of the WD40 domain of ATG16L1” (Nature Communications, 2016):
Ends that are not written are not given here. Tds = not defined here

Key:
Test in all cases: peptide or protein array; Peptides immobilised through the N-terminus (Tds spacer) on glass slides (JPT), nine spots per peptide; recombinant ligand 400 nM to 1 uM in PBS/0.05% Tween-20 with 5% BSA, 2 h at room temperature then overnight at 4 °C; detected with anti-HA plus anti-GST and Cy5-labelled secondary antibodies; background of a FLAG peptide subtracted
Details in all cases: both partners purified
[1] = target: T1, GST-HA-ATG16L1-231–607 A300, purified from human cells (human, UniProt Q676U5 231-607, T300A)
T1 construct: source: HEK-293T, retrovirally transduced, purified (GSH-agarose)

[2] = target: T2, GST-HA-ATG16L1-231–607 T300, purified from human cells (human, UniProt Q676U5 231-607)
T2 construct: source: HEK-293T, retrovirally transduced, purified (GSH-agarose)

[3] = target: T3, GST-HA-ATG16L1-320–607 (recombinant WD40 domain fused to GST and the HA tag) (human, UniProt Q676U5 320-607)
T3 construct: source: E. coli BL21 (pGEX), purified (GSH-agarose, eluted with reduced GSH)
T3 sequence (Q676U5 320-607): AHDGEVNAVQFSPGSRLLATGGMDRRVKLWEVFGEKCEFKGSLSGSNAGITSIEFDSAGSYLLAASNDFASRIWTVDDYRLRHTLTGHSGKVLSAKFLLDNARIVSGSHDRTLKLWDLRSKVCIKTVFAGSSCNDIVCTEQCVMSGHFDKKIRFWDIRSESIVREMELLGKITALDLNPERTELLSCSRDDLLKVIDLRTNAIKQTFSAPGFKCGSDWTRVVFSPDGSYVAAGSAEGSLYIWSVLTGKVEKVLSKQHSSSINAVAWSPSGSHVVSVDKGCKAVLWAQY

T2 sequence (Q676U5 231-607): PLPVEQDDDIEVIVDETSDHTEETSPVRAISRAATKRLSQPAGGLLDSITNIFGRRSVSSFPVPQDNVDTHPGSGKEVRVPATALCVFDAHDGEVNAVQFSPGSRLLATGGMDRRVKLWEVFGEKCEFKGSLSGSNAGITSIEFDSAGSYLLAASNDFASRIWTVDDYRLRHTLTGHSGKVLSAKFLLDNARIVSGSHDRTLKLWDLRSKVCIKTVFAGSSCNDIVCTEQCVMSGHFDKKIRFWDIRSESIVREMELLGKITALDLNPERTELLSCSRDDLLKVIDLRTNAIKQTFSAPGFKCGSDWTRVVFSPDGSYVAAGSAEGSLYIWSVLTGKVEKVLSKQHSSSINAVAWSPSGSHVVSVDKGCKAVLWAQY
T1 sequence (Q676U5 231-607 T300A): as the sequence (Q676U5 231-607) above, with T70A counted along it

B1: TMEM59 263–281 peptide, wild type (19-amino acid peptide that includes the ATG16L1-binding motif) (peptide, UniProt Q9BXS4 263-281, looked up)
peptide: Tds-TAVEQYVPSEKLSIYGDLE
modifications: not fully specified; reading uncertain
notes: TMEM59 residues 263-281 of the intracellular domain; also called WT peptide; native peptide; source: synthetic peptide on microarray, bought: JPT (Germany)
B1: binds [1]; binds [2]; binds [3].

B2: TMEM59 263–281 peptide E272A (peptide, UniProt Q9BXS4 263-281, looked up)
peptide: Tds-TAVEQYVPSAKLSIYGDLE
modifications: reading uncertain
notes: TMEM59 residues 263-281 with E272A; source: synthetic peptide on microarray, bought: JPT (Germany)
B2: binds [2].
